From patent publication US20150218255A1 (US Dept. of Health and Human Services, published 2015)
Residue numbers refer to the chain shown, from its start.

Experiments:
[1] = biological target: T1, DENV envelope domain III, serotype 2 (antigen of the Biacore assays) (Dengue virus serotype 2 (consensus …, UniProt P14337 571-674)); test: SPR (Biacore)
T1 construct: also called DIII serotype 2; DIII.2

[2] = biological target: T2, DENV envelope domain III, serotype 4 (antigen of the Biacore assays) (Dengue virus serotype 4 (consensus …, UniProt P09866 570-673)); test: SPR (Biacore)
T2 construct: also called DIII serotype 4; DIII.4

[3] = biological target: T3, DENV envelope domain III, serotype 3 (antigen of the Biacore assays) (Dengue virus serotype 3 (consensus …, UniProt Q5UB51 569-672)); test: SPR (Biacore)
T3 construct: also called DIII serotype 3; DIII.3

[4] = biological target: T4, DENV envelope domain III, serotype 1 (antigen of the Biacore assays) (Dengue virus serotype 1 (consensus …, UniProt P17763 571-674)); test: SPR (Biacore)
T4 construct: also called DIII serotype 1; DIII.1
T4 chain: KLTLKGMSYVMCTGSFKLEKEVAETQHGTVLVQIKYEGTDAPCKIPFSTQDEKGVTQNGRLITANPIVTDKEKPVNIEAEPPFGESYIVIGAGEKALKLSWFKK

[5] = biological target: T1, DENV envelope domain III, serotype 2 …; test: SPR (Biacore); remark: listed apart in the source
[6] = biological target: T2, DENV envelope domain III, serotype 4 …; test: SPR (Biacore); remark: listed apart in the source
[7] = biological target: T3, DENV envelope domain III, serotype 3 …; test: SPR (Biacore); remark: listed apart in the source
[8] = biological target: T4, DENV envelope domain III, serotype 1 …; test: SPR (Biacore)
[9] = biological target: T1, DENV envelope domain III, serotype 2 …; test: SPR (Biacore X100), scFv m366 immobilised on CM5, antigen injected, 1:1 Langmuir fit
[10] = biological target: T2, DENV envelope domain III, serotype 4 …; test: as above
[11] = biological target: T3, DENV envelope domain III, serotype 3 …; test: as above
[12] = biological target: T4, DENV envelope domain III, serotype 1 …; test: as above

T1 sequence (P14337 571-674 limits assumed): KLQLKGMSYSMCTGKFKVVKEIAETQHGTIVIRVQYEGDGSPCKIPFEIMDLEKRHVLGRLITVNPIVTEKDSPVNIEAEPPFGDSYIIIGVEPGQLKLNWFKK
T3 sequence (Q5UB51 569-672 limits assumed): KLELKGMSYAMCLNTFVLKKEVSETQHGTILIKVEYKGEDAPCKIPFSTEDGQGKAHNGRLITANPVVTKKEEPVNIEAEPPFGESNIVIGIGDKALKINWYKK
T2 sequence (P09866 570-673 limits assumed): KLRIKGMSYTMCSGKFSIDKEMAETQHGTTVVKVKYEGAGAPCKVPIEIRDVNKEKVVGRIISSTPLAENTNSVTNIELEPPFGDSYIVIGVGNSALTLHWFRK

B1: human anti-dengue virus antibody scFv m360.6 (scFv)
scFv: KVTLKESGPTLVKPRQTLTLTCTFSGFSLSTSGMRVSWVRQPPGKALEWIARIDWDDDKFYSTSLKTRLTISKDTFKNQVVLTMTNMDPVDTAMYYCVRTPYNWNDGPRGALDIWGQGTMVTVSSGGDRSDGGASGGGGSQSMLTQSPSVSAAPGQNVTISCSGDYPNIRNNYVSWYQQLPGAAPKLLIYDNNKRPSGIPDRFSGSKSGTSATLDITGLQTGDEADYYCGAWDSRLSAVVFGGGTKLTVLG
notes: also called antibody m360.6
Kd [1]: 0.24 nM
Kd [2]: 33 nM
Kd [3]: 0.0023 nM
Kd [4]: 0.31 nM

B2: human anti-dengue virus antibody scFv m360 (scFv)
scFv: QVTLKESGPTLVKRTQTLTLTCTFFGFSLSTSGMRVSWIRQPPGKALEWIARIDWDDDKFYSISLKSRLTISKDTSKNQVVLTMTNMDPVDTATYYCARTPYNWNDGPRGAFDIWGQGTMVTVSSEGGGSGGGASSGGGSQSVLTQPPSVSAAPGQKVTIPCSGSYSNIRNNYVSWYQQLPGTAPKLLIYDDNKRPSGIPDRFSGSKSGTLATLVITGLQSGDEADYYCGTWDSSLSGVVFGGGTKLTVLG
notes: also called antibody m360
Kd [5]: 5.13 nM
Kd [6]: 82.8 nM
Kd [7]: 0.116 nM
Kd [8]: 5.84 nM

B3: human anti-dengue virus antibody scFv m366 (scFv)
scFv: QLQLQESGGGLVQPGGSLRLSCAASGFTFSSYSMNWVRQAPGKRLEWVSSISGSSSYIYYADSVKGRFTISRDNAKNSLYLQMDSLRAEDTAVYYCARYAAGIWTFDIWGQGTTVTVSSGGGGSGGGASGGGGSSYELTQPPSVSVAPGKTASISCGGDNIGRKSVHWFQQKPGQAPVLVLYDDSDRPSGIPARFSGSNSGNTATLTISRVEAGDEADYYCQVWARSSDHPNWVFGGGTKLTVLG
notes: also called antibody m366
Kd [9]: 2.51 nM
Kd [10]: 12.4 nM
Kd [11]: 1.09 nM
koff [11]: 0.000204 s⁻¹
kon [11]: 186000 M⁻¹ s⁻¹
Kd [12]: 6.14 nM

B4: human anti-dengue virus antibody scFv m366.6 (scFv)
scFv: B3 scFv with Y32H, V37I, G53S, K65R, A100M, T114M, R210G, H230L
notes: also called antibody m366.6
Kd [1]: 0.29 nM
Kd [2]: 0.75 nM
Kd [3]: 0.27 nM
Kd [4]: 0.44 nM
